B1: Calcium-binding and coiled-coil domain-containing protein 2 (Homo sapiens), Q13137 (parent)
chain: MEETIKDPPTSAVLLDHCHFSQVIFNSVEKFYIPGGDVTCHYTFTQHFIPRRKDWIGIFRVGWKTTREYYTFMWVTLPIDLNNKSAKQQEVQFKAYYLPKDDEYYQFCYVDEDGVVRGASIPFQFRPENEEDILVVTTQGEVEEIEQHNKELCKENQELKDSCISLQKQNSDMQAELQKKQEELETLQSINKKLELKVKEQKDYWETELLQLKEQNQKMSSENEKMGIRVDQLQAQLSTQEKEMEKLVQGDQDKTEQLEQLKKENDHLFLSLTEQRKDQKKLEQTVEQMKQNETTAMKKQQELMDENFDLSKRLSENEIICNALQRQKERLEGENDLLKRENSRLLSYMGLDFNSLPYQVPTSDEGGARQNPGLAYGNPYSGIQESSSPSPLSIKKCPICKADDICDHTLEQQQMQPLCFNCPICDKIFPATEKQIFEDHVFCHSL
partner: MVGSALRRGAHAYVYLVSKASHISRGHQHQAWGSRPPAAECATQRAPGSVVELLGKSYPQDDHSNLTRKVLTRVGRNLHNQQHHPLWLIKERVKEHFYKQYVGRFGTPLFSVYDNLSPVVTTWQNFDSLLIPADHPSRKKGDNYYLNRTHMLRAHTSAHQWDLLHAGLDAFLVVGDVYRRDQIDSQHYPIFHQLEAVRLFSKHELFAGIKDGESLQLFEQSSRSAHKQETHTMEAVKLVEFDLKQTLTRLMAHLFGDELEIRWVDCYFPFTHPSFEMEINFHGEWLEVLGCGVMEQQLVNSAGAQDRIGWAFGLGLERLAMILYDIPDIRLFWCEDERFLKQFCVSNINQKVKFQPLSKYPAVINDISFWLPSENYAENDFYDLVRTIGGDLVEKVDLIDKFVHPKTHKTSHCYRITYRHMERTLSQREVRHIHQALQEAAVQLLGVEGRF
B2: Ligand of Numb protein X 2 (Homo sapiens), Q8N448 (parent)
chain: MGTTSDEMVSVEQTSSSSLNPLCFECGQQHWTRENHLYNYQNEVDDDLVCHICLQPLLQPLDTPCGHTFCYKCLRNFLQEKDFCPLDRKRLHFKLCKKSSILVHKLLDKLLVLCPFSSVCKDVMQRCDLEAHLKNRCPGASHRRVALERRKTSRTQAEIENENGPTLLDPAGTLSPEADCLGTGAVPVERHLTSASLSTWSEEPGLDNPAFEESAGADTTQQPLSLPEGEITTIEIHRSNPYIQLGISIVGGNETPLINIVIQEVYRDGVIARDGRLLAGDQILQVNNYNISNVSHNYARAVLSQPCNTLHLTVLRERRFGNRAHNHSDSNSPREEIFQVALHKRDSGEQLGIKLVRRTDEPGVFILDLLEGGLAAQDGRLSSNDRVLAINGHDLKYGTPELAAQIIQASGERVNLTIARPGKPQPGNTIREAGNHSSSSQHHTPPPYYSRPSSHKDLTQCVTCQEKHITVKKEPHESLGMTVAGGRGSKSGELPIFVTSVPPHGCLARDGRIKRGDVLLNINGIDLTNLSHSEAVAMLKASAASPAVALKALEVQIVEEATQNAEEQPSTFSENEYDASWSPSWVMWLGLPSTLHSCHDIVLRRSYLGSWGFSIVGGYEENHTNQPFFIKTIVLGTPAYYDGRLKCGDMIVAVNGLSTVGMSHSALVPMLKEQRNKVTLTVICWPGSLV
partner: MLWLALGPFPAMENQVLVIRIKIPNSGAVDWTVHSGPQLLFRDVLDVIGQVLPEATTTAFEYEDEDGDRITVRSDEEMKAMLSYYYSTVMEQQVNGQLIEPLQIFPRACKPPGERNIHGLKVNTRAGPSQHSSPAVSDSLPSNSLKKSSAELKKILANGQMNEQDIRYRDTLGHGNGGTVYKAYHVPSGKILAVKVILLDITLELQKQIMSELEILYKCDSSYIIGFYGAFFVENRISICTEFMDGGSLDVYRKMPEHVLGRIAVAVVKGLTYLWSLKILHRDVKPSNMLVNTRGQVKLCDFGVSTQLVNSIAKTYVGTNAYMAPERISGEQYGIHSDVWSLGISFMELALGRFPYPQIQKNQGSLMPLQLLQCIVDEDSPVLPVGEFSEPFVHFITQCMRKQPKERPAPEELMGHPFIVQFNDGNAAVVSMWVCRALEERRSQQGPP
B3: Alpha-taxilin (Homo sapiens), P40222 (parent)
chain: MKNQDKKNGAAKQSNPKSSPGQPEAGPEGAQERPSQAAPAVEAEGPGSSQAPRKPEGAQARTAQSGALRDVSEELSRQLEDILSTYCVDNNQGGPGEDGAQGEPAEPEDAEKSRTYVARNGEPEPTPVVNGEKEPSKGDPNTEEIRQSDEVGDRDHRRPQEKKKAKGLGKEITLLMQTLNTLSTPEEKLAALCKKYAELLEEHRNSQKQMKLLQKKQSQLVQEKDHLRGEHSKAVLARSKLESLCRELQRHNRSLKEEGVQRAREEEEKRKEVTSHFQVTLNDIQLQMEQHNERNSKLRQENMELAERLKKLIEQYELREEHIDKVFKHKDLQQQLVDAKLQQAQEMLKEAEERHQREKDFLLKEAVESQRMCELMKQQETHLKQQLALYTEKFEEFQNTLSKSSEVFTTFKQEMEKMTKKIKKLEKETTMYRSRWESSNKALLEMAEEKTVRDKELEGLQVKIQRLEKLCRALQTERNDLNKRVQDLSAGGQGSLTDSGPERRPEGPGAQAPSSPRVTEAPCYPGAPSTEASGQTGPQEPTSARA
partner: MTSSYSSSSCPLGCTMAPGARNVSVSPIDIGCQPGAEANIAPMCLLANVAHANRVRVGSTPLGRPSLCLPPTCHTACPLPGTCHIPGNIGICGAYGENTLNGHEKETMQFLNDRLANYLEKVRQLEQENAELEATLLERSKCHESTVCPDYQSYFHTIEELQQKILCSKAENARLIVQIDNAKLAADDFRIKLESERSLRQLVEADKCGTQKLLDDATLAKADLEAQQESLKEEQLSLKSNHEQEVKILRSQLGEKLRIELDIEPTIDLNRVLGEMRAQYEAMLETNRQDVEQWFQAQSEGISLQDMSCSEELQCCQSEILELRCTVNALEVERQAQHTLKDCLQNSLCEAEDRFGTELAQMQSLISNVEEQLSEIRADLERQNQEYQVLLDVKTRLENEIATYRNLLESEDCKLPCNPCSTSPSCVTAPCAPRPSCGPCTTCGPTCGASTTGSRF
B4: Notch homolog 2 N-terminal-like protein A (Homo sapiens), Q7Z3S9 (parent)
chain: MCVTYHNGTGYCKCPEGFLGEYCQHRDPCEKNRCQNGGTCVAQAMLGKATCRCASGFTGEDCQYSTSHPCFVSRPCLNGGTCHMLSRDTYECTCQVGFTGKECQWTDACLSHPCANGSTCTTVANQFSCKCLTGFTGQKCETDVNECDIPGHCQHGGTCLNLPGSYQCQCLQGFTGQYCDSLYVPCAPSPCVNGGTCRQTGDFTFECNCLPETVRRGTELWERDREVWNGKEHDEN
partner: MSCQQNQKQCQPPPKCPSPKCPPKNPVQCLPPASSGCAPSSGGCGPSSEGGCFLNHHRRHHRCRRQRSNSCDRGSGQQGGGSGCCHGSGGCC
B5: Armadillo repeat-containing protein 1 (Homo sapiens), Q9NVT9 (parent)
chain: MNSSTSTMSEEPDALSVVNQLRDLAADPLNRRAIVQDQGCLPGLILFMDHPNPPVVHSALLALRYLAECRANREKMKGELGMMLSLQNVIQKTTTPGETKLLASEIYDILQSSNMADGDSFNEMNSRRRKAQFFLGTTNKRAKTVVLHIDGLDDTSRRNLCEEALLKIKGVISFTFQMAVQRCVVRIRSDLKAEALASAIASTKVMKAQQVVKSESGEEMLVPFQDTPVEVEQNTELPDYLPEDESPTKEQDKAVSRVGSHPEGGASWLSTAANFLSRSFYW
B6: Late cornified envelope protein 1B (Homo sapiens), Q5T7P3 (parent)
chain: MSCQQNQQQCQPPPKCIPKCPPKCLTPRCPPKCPPKCPPVSSCCSVSSGGCCGSSSGGSCGSSSGGCCSSGGGGCCLSHHRRRRSHCHRPQSSGCCSQPSGGSSCCGGGSGQHSGGCC
partner: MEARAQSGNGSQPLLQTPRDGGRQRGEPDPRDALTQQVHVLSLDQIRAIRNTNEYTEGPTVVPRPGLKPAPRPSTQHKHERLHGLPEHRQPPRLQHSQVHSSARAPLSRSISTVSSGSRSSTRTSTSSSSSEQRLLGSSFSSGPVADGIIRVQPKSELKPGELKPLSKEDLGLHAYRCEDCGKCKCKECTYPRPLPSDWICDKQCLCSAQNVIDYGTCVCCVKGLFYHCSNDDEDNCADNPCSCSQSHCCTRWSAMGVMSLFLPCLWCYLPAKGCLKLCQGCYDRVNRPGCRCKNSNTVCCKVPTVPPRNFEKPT
B7: Probable RNA-binding protein EIF1AD (Homo sapiens), Q8N9N8 (parent)
chain: MSQATKRKHVVKEVLGEHIVPSDQQQIVRVLRTPGNNLHEVETAQGQRFLVSMPSKYRKNIWIKRGDFLIVDPIEEGEKVKAEISFVLCKDHVRSLQKEGFWPEAFSEVAEKHNNRNRQTQPELPAEPQLSGEESSSEDDSDLFVNTNRRQYHESEEESEEEEAA
partner: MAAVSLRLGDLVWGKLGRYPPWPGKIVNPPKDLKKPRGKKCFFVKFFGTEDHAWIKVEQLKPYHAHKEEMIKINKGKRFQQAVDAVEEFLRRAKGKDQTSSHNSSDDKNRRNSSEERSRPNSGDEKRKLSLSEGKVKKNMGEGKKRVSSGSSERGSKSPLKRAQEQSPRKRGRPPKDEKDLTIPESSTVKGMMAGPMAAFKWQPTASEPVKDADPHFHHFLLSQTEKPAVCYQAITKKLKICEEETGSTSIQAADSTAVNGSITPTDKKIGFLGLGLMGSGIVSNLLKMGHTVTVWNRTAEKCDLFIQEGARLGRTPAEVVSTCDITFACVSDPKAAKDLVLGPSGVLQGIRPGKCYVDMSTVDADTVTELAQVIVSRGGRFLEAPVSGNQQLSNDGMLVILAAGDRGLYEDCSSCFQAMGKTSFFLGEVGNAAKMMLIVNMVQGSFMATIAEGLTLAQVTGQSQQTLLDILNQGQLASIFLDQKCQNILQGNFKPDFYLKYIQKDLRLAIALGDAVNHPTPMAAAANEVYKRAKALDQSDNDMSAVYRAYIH
B8: Growth arrest and DNA damage-inducible protein GADD45 gamma (Homo sapiens), O95257 (parent)
chain: MTLEEVRGQDTVPESTARMQGAGKALHELLLSAQRQGCLTAGVYESAKVLNVDPDNVTFCVLAAGEEDEGDIALQIHFTLIQAFCCENDIDIVRVGDVQRLAAIVGAGEEAGAPGDLHCILISNPNEDAWKDPALEKLSLFCEESRSVNDWVPSITLPE
partner: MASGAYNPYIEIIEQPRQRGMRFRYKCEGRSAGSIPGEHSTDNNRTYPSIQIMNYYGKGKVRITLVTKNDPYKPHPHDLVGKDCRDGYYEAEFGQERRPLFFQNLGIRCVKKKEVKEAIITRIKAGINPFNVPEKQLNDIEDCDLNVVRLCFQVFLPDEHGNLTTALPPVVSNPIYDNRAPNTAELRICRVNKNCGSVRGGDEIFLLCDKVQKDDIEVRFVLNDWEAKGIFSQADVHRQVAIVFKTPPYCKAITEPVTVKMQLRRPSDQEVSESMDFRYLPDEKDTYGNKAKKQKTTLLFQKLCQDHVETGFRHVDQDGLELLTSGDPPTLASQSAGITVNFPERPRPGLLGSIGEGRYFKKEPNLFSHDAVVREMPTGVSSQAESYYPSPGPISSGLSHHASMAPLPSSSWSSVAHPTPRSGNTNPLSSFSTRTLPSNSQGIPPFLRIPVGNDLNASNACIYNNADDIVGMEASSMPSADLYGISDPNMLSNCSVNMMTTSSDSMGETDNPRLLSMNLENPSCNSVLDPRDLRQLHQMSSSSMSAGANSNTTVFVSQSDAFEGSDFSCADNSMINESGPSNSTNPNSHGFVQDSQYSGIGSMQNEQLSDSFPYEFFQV

Variants of: B1
Settings: with syfm_human FARS2, O95363

Row | effect of a mutation on the interaction | Variant
1 | with no effect | E222K

Variants of: B2
Settings: with mp2k5_human MAP2K5, Q13163

Row | effect of a mutation on the interaction | Variant
2 | with no effect | S198P

Variants of: B3
Settings: with krt38_human KRT38, O76015

Row | effect of a mutation on the interaction | Variant
3 | with no effect | P541S
4 | with no effect | S514R
5 | disrupting interaction strength | R154G

Variants of: B4
Settings: with lce3e_human LCE3E

Row | effect of a mutation on the interaction | Variant
6 | with no effect | R74Q
7 | with no effect | A115T

Variants of: B5
Settings: with mfr1l_human MTFR1L

Row | effect of a mutation on the interaction | Variant
8 | with no effect | M83T

Variants of: B6
Settings: with spy2_human SPRY2, O43597

Row | effect of a mutation on the interaction | Variant
9 | with no effect | H113Q

Variants of: B7
Settings: with glyr1_human GLYR1, Q49A26

Row | effect of a mutation on the interaction | Variant
10 | with no effect | R48C

Variants of: B8
Settings: with rel_human REL

Row | effect of a mutation on the interaction | Variant
11 | with no effect | G112S

— IntAct's records for PubMed 31515488
